One block for each molecule: values may come before it. Square brackets hold non-standard residues; d marks the D form. Ends that are not written are not given here. Peptide text beside a SMILES is read from it. hydrazide = C-terminal Gly-hydrazide; hydrazone‑SIG17 = not defined here; hydrazone‑FC45 = not defined here; pS = N[C@@H](COP(=O)(O)O)C(=O)O; Ahx = NCCCCCC(=O)O
Legend:
14-3-3η = biological target: T1, 14-3-3η (Homo sapiens, UniProt Q04917); assay: Fluorescence anisotropy (FA) competition assay against tracer hDMX361–374^pSer367*; assay type: binding; settings: 50 nM hDMX361–374^pSer367*
T1 construct: full length proteins were concentrated by centrifugation; His tag (pProEx HTb vector) (N); made in house; host or cells: E. coli BL21(DE3)
T1 sequence (Q04917 1-246): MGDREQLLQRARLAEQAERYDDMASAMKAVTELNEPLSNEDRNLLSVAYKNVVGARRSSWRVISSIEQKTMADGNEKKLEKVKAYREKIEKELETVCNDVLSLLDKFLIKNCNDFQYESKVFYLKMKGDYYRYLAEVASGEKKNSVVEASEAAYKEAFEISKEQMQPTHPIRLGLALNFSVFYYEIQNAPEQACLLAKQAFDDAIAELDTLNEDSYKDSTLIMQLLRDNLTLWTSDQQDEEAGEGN
Description: A fluorescence anisotropy (FA) competition assay was subsequently carried out using conditions previously found suitable for acylhydrazone formation (pH 6.5, 50 mM NH4OAc, 10 mM aniline) with added DTT (1 mM) to supress disulfide formation. hDMX361–369^pSer367Gly-hydrazide was used to compete with a tracer peptide: hDMX361–374^pSer367* for binding to 14-3-3η (Fig S2, ESI ^†). […] Initial attempts to screen in cocktails, established the aldehydes had no affect on their own (Fig. S3, ESI ^†). We then performed an assay where each aldehyde was screened individually with hDMX361–369^pSer367Gly-hydrazide. A decrease in anisotropy can be attributed to a particular hydrazone product, avoiding the additional step of product identification e.g. by HRMS, and, combines the equilibration step for hydrazone formation with 14-3-3η screening (Fig. 2a). […] To confirm the single-concentration results, a competition assay was performed (Fig. 2b). hDMX361–369^pSer367Gly-hydrazide was equilibrated with 5 equivalents of each aldehyde (product formation confirmed by LC-MS, see Fig. S4, ESI ^†), and serially diluted against the tracer peptide (hDMX361–374^pSer367*) and 14-3-3η protein.
Fig. 2 Dynamic ligation screening based on hDMX361–369^pSer367Gly-hydrazide (a) Anisotropy values of individually screened hydrazones (relative to buffer, zero activity negative control in grey), hDMX361–374^pSer367 (blue) and hDMX361–369^pSer367Gly-hydrazide (red) as positive controls with hits (hDMX361–369^pSer367Gly-hydrazone-FC45 and hDMX361–369^pSer367Gly-hydrazone-SIG17) highlighted in orange boxes (10 μM acetylated hydrazide peptide mixed with 5 eq. of aldehyde, 1 μM 14-3-3η, 50 nM hDMX361–374^pSer367*, 50 mM NH4OAc, 10 mM aniline and 1 mM DTT) (b) competition FA curves for hydrazones taken forward as hits (50 nM hDMX361–374^pSer367*, 1 μM 14-3-3η in 50 mM NH4OAc, 10 mM aniline and 1 mM DTT).
Fig. 3 Dynamic ligation screening based on hDMX361–370^pSer367Gly-hydrazide (a) anisotropy values of individually screened hydrazones (relative to buffer, zero activity negative control in grey), hDMX361–374^pSer367 (blue) and hDMX361–370^pSer367Gly-hydrazide (red) as positive controls with hits highlighted in black boxes (10 μM acetylated hydrazide peptide mixed with 5 eq. of aldehyde, 1 μM 14-3-3η, 50 nM hDMX361–374^pSer367*, 50 mM NH4OAc, 10 mM aniline and 1 mM DTT) (b) representative competition FA curves for hydrazones taken forwards as hits (50 nM hDMX361–374^pSer367*, 1 μM 14-3-3η in 50 mM NH4OAc, 10 mM aniline and 1 mM DTT). […]
Screening was performed using fluorescence anisotropy competition assay, in 50 mM NH4Ac pH 6.5 buffer containing 10 mM aniline, 1 mM DTT. […]

[1] = biological target: T2, hDMX361–369pSer367Gly-hydrazide 361-369 (Homo sapiens, UniProt O15151); assay: fluorescence anisotropy competition
T2 chain: DCRRTI[pS]APG-hydrazide

[2] = biological target: T3, hDMX361–369pSer367Gly-hydrazone-FC45 361-369 (Homo sapiens, UniProt O15151, reading uncertain; also: printed as hDMX361–369pSer367Gly-hydrazone-FC45 361-369); assay: fluorescence anisotropy competition
T3 chain: DCRRTI[pS]APG-{hydrazone‑FC45}

[3] = biological target: T4, hDMX361–369pSer367Gly-hydrazone-SIG17 361-369 (Homo sapiens, UniProt O15151, reading uncertain; also: printed as hDMX361–369pSer367Gly-hydrazone-SIG17 361-369); assay: fluorescence anisotropy competition
T4 chain: DCRRTI[pS]APG-{hydrazone‑SIG17}

[4] = biological target: T5, hDMX361–374pSer367 361-374 (Homo sapiens, UniProt O15151); assay: fluorescence anisotropy competition
T5 chain: DCRRTI[pS]APVVRPK

[5] = biological target: T6, hDMX361–370pSer367Gly* 361-370 (Homo sapiens, UniProt O15151, also: FAM-Ahx, end not given here); assay: fluorescence anisotropy
T6 chain: {FAM-Ahx}-DCRRTI[pS]APVG

[6] = Fig. 2b experiment, hydrazide equilibrated with 5 eq. aldehyde, serially diluted, 1 μM 14-3-3η, 50 mM NH4OAc, 10 mM aniline, 1 mM DTT, pH 6.5

Molecule: CC[C@H](C)[C@H](NC(=O)[C@@H](NC(=O)[C@H](CCCNC(=N)N)NC(=O)[C@H](CCCNC(=N)N)NC(=O)[C@H](CS)NC(=O)[C@H](CC(=O)O)NC(C)=O)[C@@H](C)O)C(=O)N[C@@H](COP(=O)(O)O)C(=O)N[C@@H](C)C(=O)N1CCC[C@H]1C(=O)NCC(=O)N/N=C/c1cc(Br)cc([N+](=O)[O-])c1 [hDMX361–369^pSer367Gly-hydrazone-FC45] (HELM PEPTIDE1{[ac].D.C.R.R.T.I.[O=C([C@H](COP(=O)(O)O)N[*:1])[*:2]].A.P.G.[O=[N+]([O-])c1cc(Br)cc(/C=N/N[*:1])c1]}$$$$V2.0)
IC50 (14-3-3η; [6]): 10.4 ± 0.3 µM

Molecule: CC[C@H](C)[C@H](NC(=O)[C@@H](NC(=O)[C@H](CCCNC(=N)N)NC(=O)[C@H](CCCNC(=N)N)NC(=O)[C@H](CS)NC(=O)[C@H](CC(=O)O)NC(C)=O)[C@@H](C)O)C(=O)N[C@@H](COP(=O)(O)O)C(=O)N[C@@H](C)C(=O)N1CCC[C@H]1C(=O)N[C@H](C(=O)NCC(=O)NN)C(C)C [hDMX361–370^pSer367Gly-hydrazide] (HELM PEPTIDE1{[ac].D.C.R.R.T.I.[O=C([C@H](COP(=O)(O)O)N[*:1])[*:2]].A.P.V.G.[NN[*:1]]}$$$$V2.0)
IC50 (14-3-3η; Fig. 3b experiment, 1 μM 14-3-3η in 50 mM NH4OAc, 10 mM aniline and 1 mM DTT): 8.5 ± 1.6 µM

The remaining lines, values ahead:

IC50 (14-3-3η; [6]): 8.2 ± 1.3 µM
Molecule: CC[C@H](C)[C@H](NC(=O)[C@@H](NC(=O)[C@H](CCCNC(=N)N)NC(=O)[C@H](CCCNC(=N)N)NC(=O)[C@H](CS)NC(=O)[C@H](CC(=O)O)NC(C)=O)[C@@H](C)O)C(=O)N[C@@H](COP(=O)(O)O)C(=O)N[C@@H](C)C(=O)N1CCC[C@H]1C(=O)NCC(=O)NN [hDMX361–369^pSer367Gly-hydrazide] (HELM PEPTIDE1{[ac].D.C.R.R.T.I.[O=C([C@H](COP(=O)(O)O)N[*:1])[*:2]].A.P.G.[NN[*:1]]}$$$$V2.0)

IC50 [1]: 8.2 µM | IC50 [2]: 10.4 µM | IC50 [3]: 13.7 µM | IC50 [4]: 8.5 µM | Kd [5]: 0.172 µM
B1: 14-3-3η (protein)
chain: GDREQLLQRARLAEQAERYDDMASAMKAVTELNEPLSNEDRNLLSVAYKNVVGARRSSWRVISSIEQKTMADGNEKKLEKVKAYREKIEKELETVCNDVLSLLDKFLIKNCNDFQYESKVFYLKMKGDYYRYLAEVASGEKKNSVVEASEAAYKEAFEISKEQMQPTHPIRLGLALNFSVFYYEIQNAPEQACLLAKQAFDDAIAELDTLNEDSYKDSTLIMQLLRDNLTLWTSDQQDEEAGEGN
